From patent US20090258005A1 (TRUBION PHARMACEUTICALS, published 2009)

T1: L1-CR1 (Her054P)
T1 construct: also called 1.0
T1 chain: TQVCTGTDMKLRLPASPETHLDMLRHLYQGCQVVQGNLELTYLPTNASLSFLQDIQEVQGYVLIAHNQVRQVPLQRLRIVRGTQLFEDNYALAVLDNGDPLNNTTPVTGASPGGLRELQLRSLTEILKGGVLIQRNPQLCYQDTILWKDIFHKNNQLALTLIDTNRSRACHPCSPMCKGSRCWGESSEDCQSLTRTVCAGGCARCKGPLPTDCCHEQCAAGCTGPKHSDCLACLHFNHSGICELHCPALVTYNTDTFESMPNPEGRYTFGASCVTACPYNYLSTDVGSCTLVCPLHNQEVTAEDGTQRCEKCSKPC


Legend:
ECD region of Her2 [1] = molecular target: T2, ECD region of Her2 (human, UniProt P04626 23-652); experiment: cell ELISA, phage scFv, CHO-ECD cells
T2 construct: extracellular domain; Generic target of the scFv screen; also called extracellular domain (ECD) of Her2 (ErbB2)
Method: 2×10⁴ CHOK1 cells/well were seeded in a 96-well tissue culture plate on Day 1 and incubated at 37° C./5% CO₂ for 2-4 days until a confluent monolayer was observed. Cells were washed five times with PBS (+ Ca/Mg ions) and blocked for 1 hour at room temperature with 3% skim milk/1% BSA/PBS (+ Ca/Mg ions). Phage or peripreps were prepared as described above and were blocked for 1 hour at room temperature in an equal volume of 6% skim milk/1% BSA/PBS (+ Ca/Mg ions). Blocked plates were washed five times with PBS (+ Ca/Mg ions) and 50 μl/well of blocked phage or periprep were transferred to the appropriate plates and incubated for 1 hour at room temperature. […] Plates were incubated for a further hour at room temperature and washed ten times with PBS (+ Ca/Mg ions). Signal was developed using TMB, the reaction stopped with H₂SO₄ and the absorbance read at 450 nm on an ENVISION plate reader (Perkin Elmer).

EQR (Her017P) = molecular target: T3, EQR (Her017P); experiment: ELISA, soluble scFv on EQR
T3 construct: also called HER2 EQR-Fc; HER2 EQR DIMER
Method: (§1) Various Her2-Fc proteins (e.g., Her008P, Her017P, Her018P, etc.) or a negative control murine IgG2a protein were coated overnight at 4° C. on 96-well Nunc Maxisorp at a concentration of 1 ug/ml in PBS. Alternatively, pre-blocked streptavidin-coated plates (Greiner) were coated with biotinylated Her2-Fc proteins for 1 hour at room temperature at a concentration of 1 ug/ml in block buffer (3% skim milk/1% BSA/PBS). Plates were washed three times using PBS and blocked for 1 hour at room temperature in 3% skim milk/1% BSA/PBS. Phage or peripreps were prepared as described above and were blocked for 1 hour at room temperature in an equal volume of 6% skim milk/1% BSA/PBS. Blocked plates were washed five times with PBS and 50 μl/well of blocked phage or periprep were transferred to the appropriate plates and incubated for 1 hour at room temperature. […] Plates were incubated for a further hour at room temperature and washed seven times with PBS. Signal was developed using TMB, the reaction stopped with H₂SO₄ and the absorbance read at 450 nm on an Envision plate reader (Perkin Elmer).

[2] = molecular target: T4, Her008P, full-length extracellular domain (ECD) of Her2 expressed with a mIgG2a Fc tail (human; murine, UniProt P04626 23-652); experiment: ELISA, soluble scFv on ECD
T4 construct: also called SIIS; SIIS (Dimer); not shown: murine IgG2a Fc tail

L1-CR1 (Her054P) = molecular target: T1, L1-CR1 (Her054P); experiment: ELISA, soluble scFv on L1-CR1
Method: as §1

[3] = molecular target: T5, Her018P, Her2 ECD with a deletion in the CR2 (Domain IV) region expressed with a mIgG2a Fc tail (human; murine, UniProt P04626 23-599); experiment: ELISA, soluble scFv on Her018
T5 construct: Shares the name HER018 with the trastuzumab SMIP; also called 1.8 (Dimer); dimeric HER018; not shown: murine IgG2a Fc tail (C-terminal dimerising carrier) and any junction residues

Full length HER2 = molecular target: T6, Full length HER2 (human, UniProt P04626 23-1255); experiment: cell ELISA, phage scFv, SKBR3 cells
T6 construct: Endogenous HER2 on SKBR3, BT474, 22rv1, MDA-MB-175, MDA-MB-453 and MDA-MB-361 cells; also called HER2 on the cell surface; ErbB2

ECD region of Her2 [4] = molecular target: T2, ECD region of Her2; experiment: screening after three rounds of phage selection, soluble periplasmic scFv

Row | Binder | binding result (ECD region of Her2 [1]) | binding result (EQR (Her017P)) | binding result [2] | binding result (L1-CR1 (Her054P)) | binding result [3] | binding result (Full length HER2) | binding result (ECD region of Her2 [4])
1 | S1R3C1_CS_1D3 (scFv, V domains shown, scFv, on phage in the screen; also called Her2_S1R3C1_CS_1D3) VH: QVQLQESGPGLVKPSQTLSLTCGISGDSVSSNSAAWNWIRQSPTRGLEWLGRTYYRSSWYHNYAPSMNSRLTIIADTSKNQFSLQLNSVTPEDTAVYYCASGWAFDVWGRGTLVTVSS VL: QSVLTQPPSASGSPGQSVTISCTGTSSDVGAYDFVSWYQQHPGKAPKLMIYEVNKRPSGVPDRFSGSKSGNTASLTVSGLQAEDEADYYCSSYAGSKNLLFGGGTKLTVL | binds | binds | binds | no binding | no binding | binds | –
2 | S1R3B2_BMV_1G2 (scFv, V domains shown, scFv, on phage in the screen; also called Her2_S1R3B2_BMV_1G2) VH: QVQLVQSGAEVKKPGSSVKVSCKASGYTFTSYGISWVRQAPGQGLEWMGWISAYNGNTNYAQKLQGRVTMTTDTSTSTAYMELRSLRSDDTAVYYCARVPGVSGSYPDYYYMDVWGKGTLVTVSS VL: DIQMTQSPSTLSASIGDRVTITCRASEGIYHWLAWYQQKPGKAPKLLIYKASSLASGAPSRFSGSGSGTDFTLTISSLQPDDFATYYCQQYSNYPLTFGGGTKLEIK | binds | binds | binds | no binding | binds | binds | –
3 | S1R3A1_BMV_1F3 (scFv, V domains shown, scFv, soluble from bacterial periplasm in the screen; also called Her2_S1R3A1_BMV_1F3) VH: EVQLVESGEGLVKPGGSLRLSCTASGFTFRSYSLNWVRQAPGQGLEWVSSISSTSTYIYYADSVKGRFTISRDDAKNTLYLQMNSLRAEDTAAYYCVRLGSGGGYFPDYWGRGTLVTVSS VL: SSELTQDPAVSVALGQTVRITCQGDSLRSYYASWYQQKPGQAPVLVIYGKNNRPSGIPDRFSGSSSGNTASLTITGAQAEDEADYYCNSRDSSGNHVVFGGGTKLTVL | – | binds | binds | no binding | binds | – | binds
4 | S1R3A1_CS_1B9 (scFv, V domains shown, scFv, soluble from bacterial periplasm in the screen; also called Her2_S1R3A1_CS_1B9) VH: KVQLVQSGTEVKKPGESLKISCQGSGYRFSSDWIAWVRQMPGKGLEWMGIVYPGDSDTRYSPSFQGQVTISADKSISTAYLQWSGLKASDTAKYYCARVQQAVGAKGYAMDVWGKGTLVTVSS VL: QTVVIQEPSFSVSPGGTVTLTCGLSSGSVSTSYYPSWYRQTPGQAPHTLIHNTKIRSSGVPDRFSGSILGNNAALTITGAQADDESDYYCLLYMGSGIYVFGGGTKLTVL | – | binds | binds | – | binds | – | binds
5 | S1R3A1_CS_1B10 (scFv, V domains shown, scFv, soluble from bacterial periplasm in the screen; also called Her2_S1R3A1_CS_1B10) VH: EVQLVQSGAEVKKPGASVRVSCKGSGNTFTGHYIHWVRQAPGQGLEWLGWIDPNTGDIQYSENFKGSVTLTRDPSINSVFMDLIRLTSDDTAMYYCAREGAGLANYYYYGLDVWGRGTMVTVSS VL: QTVVLQEPSFSVSPGGTVTLTCGLNFGSVSTAYYPSWYQQTPGQAPRTLIYGTNIRSSGVPDRFSGSIVGNKAALTITGAQTEDESDYYCALYMGSGMLFGGGTKVTVL | – | binds | binds | – | binds | – | binds
6 | S1R3A1_DP47_1A6 (scFv, V domains shown, scFv, soluble from bacterial periplasm in the screen; also called Her2_S1R3A1_DP47_1A6) VH: not shown VL: HVILTQPPSASGTPGQRVTISCSGSSSNIGSNSVSWYQQLPGTAPKLLMYTNNQRPSGVPDRFSGSKSGTSASLAISGLQSEDEADYYCATWDASLNTWVFGGGTKVTVL | – | binds | binds | no binding | binds | – | binds
7 | S1R3B1_BMV_1A1 (scFv, V domains shown, scFv, soluble from bacterial periplasm in the screen; also called Her2_S1R3B1_BMV_1A1) VH: EVQLVQSGAEVKEPGASVKVSCKASGYDFSNYGFSWVRQAPGQGLEWMGWISSYNGYTNYAQRLQGRVTMTTDTSTSTAYMELRSLRSDDTAVYYCARDRGLGNWYFDLWGQGTLVTVSS VL: QSVLTQPASVSGSPGQSITISCTGTSSDVGGYNYVSWYQQHPGKAPKLMIYEGSKRPSGVSNRFSGSKSGNTASLTISGLQAEDEADYYCSSYTTRSTRVFGGGTKLTVL | – | binds | binds | no binding | no binding | – | binds
8 | S1R3B1_BMV_1G11 (scFv, V domains shown, scFv, soluble from bacterial periplasm in the screen; also called Her2_S1R3B1_BMV_1G11) VH: QVQLVQSGGGLVQPGGSLRLSCAASGFTFSTYAMSWARQAPGKGLEWVSSISGDGGRILDADSAKGRFTISRDNSKNTLYLQMNGLRVEDTALYYCARADGNYWGRGTMVTVSS VL: QSVLTQPASVSGSPGQSITISCTGTSSDVGGYNYVSWYQQHPGKAPKLMIYEGSKRPSGVSNRFSGSKSGNTASLTISGLQAEDEADYYCSSYTTRSTRVFGGGTKLTVL | – | no binding | binds | no binding | no binding | – | binds
9 | S1R3B1_BMV_1H5 (scFv, V domains shown, scFv, soluble from bacterial periplasm in the screen; also called Her2_S1R3B1_BMV_1H5) VH: QVQLQESGGGVVQPGGSLRLSCAASGFTFSGYGMHWVRQAPGKGLEWVASVRNDGSNTYYTDSVKDRFTISRDNTKNTLYLQMNSLRAEDTAVYYCAKSRRVMYGTSYYFDYWGRGTLVTVSS VL: SSELTQDPAVSVALGQTVRITCQGDSLRSYYASWYQQKPGQAPVLVIYGKNNRPSGIPDRFSGSSSGNTASLTITGAQAEDEADYYCNSRDSSGNHVVFGGGTKLTVL | – | no binding | binds | no binding | no binding | – | binds
10 | S1R3B1_BMV_1H9 (scFv, V domains shown, scFv, soluble from bacterial periplasm in the screen; also called Her2_S1R3B1_BMV_1H9) VH: QVQLQESGAGLVKPSGTLSLTCAVSGGSISSGNWWSWVRQPPGKGLEWIGEISHSGSTNYNPSLKSRVTISVDKSKNQFSLNLSSVTAADTAVYYCARVRGTVGDTRGPDYWGQGTLVTVSS VL: SSELTQDPAVSVALGQTVRITCQGDSLRSYYASWYQQKPGQAPVLVIYGKNNRPSGIPDRFSGSSSGNTASLTITGAQAEDEADYYCNSRDSSGNHVVFGGGTKLTVL | – | no binding | binds | no binding | no binding | – | binds
